{"source": "paper PMC11577422", "proteins": {"B1": {"name": "CYP 2E1 (Homo sapiens) (protein)", "chain": "MSALGVTVALLVWAAFLLLVSMWRQVHSSWNLPPGPFPLPIIGNLFQLELKNIPKSFTRLAQRFGPVFTLYVGSQRMVVMHGYKAVKEALLDYKDEFSGRGDLPAFHAHRDRGIIFNNGPTWKDIRRFSLTTLRNYGMGKQGNESRIQREAHFLLEALRKTQGQPFDPTFLIGCAPCNVIADILFRKHFDYNDEKFLRLMYLFNENFHLLSTPWLQLYNNFPSFLHYLPGSHRKVIKNVAEVKEYVSERVKEHHQSLDPNCPRDLTDCLLVEMEKEKHSAERLYTMDGITVTVADLFFAGTETTSTTLRYGLLILMKYPEIEEKLHEEIDRVIGPSRIPAIKDRQEMPYMDAVVHEIQRFITLVPSNLPHEATRDTIFRGYLIPKGTVVVPTLDSVLYDNQEFPDPEKFKPEHFLNENGKFKYSDYFKPFSTGKRVCAGEGLARMELFLLLCAILQHFNLKPLVDPKDIDLSPIHIGFGCIPPRYKLCVIPRS"}}, "substrate": "Cc1ccco1", "format": "in vitro ADME, human", "note": "Like-named read-outs stand apart in the source and are kept apart here."}
{"protein": "B1", "values": [{"measurement": "Km", "setting": "other: CYP 2E1; I) high substrate concentrations", "result": "I) 1966.76; II) 23.29 μM"}, {"measurement": "Km", "setting": "other: CYP 2E1; II) low substrate concentrations", "result": 23.3, "unit": "µM"}]}
